Assay [1] deals with TAZ1 (transcriptional adaptor zinc-binding 1) domain of CREB binding protein (CBP) (human) (UniProt Q92793). Kind of assay: stopped-flow fluorimetry (association kinetics); TAZ1 constant at 0.5-0.9 µM, Hif-1α CAD variant varied 1-15 µM; Trp-418 fluorescence of TAZ1; 293 K; 20 mM HEPES pH 6.9, 1 mM TCEP, 190 mM NaCl; apparent kon from the fast phase; Kd = koff^app/kon^app with koff^app from the displacement experiments.

Assay [2] has the same target. The assay is described as follows: stopped-flow fluorimetry (displacement); complex TAZ1/Hif-1α CAD variant (0.75 µM/0.5 µM) mixed with excess TAZ1 W418Y (10-50 µM); kobs at excess equals apparent koff; 293 K; 20 mM HEPES pH 6.9, 1 mM TCEP, 190 mM NaCl.
Assay [3] shares this target. Kind of assay: ITC; 15 µM TAZ1 in the cell, 149 µM Hif-1α CAD (L813A) in the syringe; 293 K; 20 mM HEPES pH 6.9, 1 mM TCEP, 190 mM NaCl; one-to-one model. (In general: Isothermal titration calorimetry measures the heat released or taken up as one component is titrated into another.)

Sequence of Hif-1α CAD hydroxylated at Asn-803 (Q16665 776-826): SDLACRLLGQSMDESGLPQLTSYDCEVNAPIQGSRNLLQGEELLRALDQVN
Sequence of C-terminal activation domain of hypoxia inducible factor 1α (Hif-1α CAD), wild type (Q16665 776-826): as above

With “C-terminal activation domain of hypoxia inducible factor 1α (Hif-1α CAD), wild type (from UniProt Q16665 776-826) (domain or fragment)”, in assay [1], the Kd was found to be 3.36 nM and the kon came to 8.83e+06 M⁻¹ s⁻¹. Also, the off-rate (koff) in assay [2] is 0.0297 s⁻¹.

On to “Hif-1α CAD C780A (from UniProt Q16665 776-826) (domain or fragment)”, for which, in assay [1], the Kd came out at 3.78 nM and the on-rate (kon) turned out to be 9.56e+06 M⁻¹ s⁻¹. Further, the off-rate constant (koff) in assay [2] stood at 0.0361 s⁻¹.

Take “Hif-1α CAD C800A (from UniProt Q16665 776-826) (domain or fragment)”: in assay [1], the Kd was determined as 17.7 nM and the on-rate (kon) was 6.55e+06 M⁻¹ s⁻¹. Moreover, the koff in assay [2] was 0.116 s⁻¹.

In the case of “Hif-1α CAD I806V (from UniProt Q16665 776-826) (domain or fragment)”, in assay [1], the Kd worked out at 5.93 nM and the association rate constant (kon) was 9.73e+06 M⁻¹ s⁻¹. Moreover, the koff in assay [2] turned out to be 0.0577 s⁻¹.

Regarding “Hif-1α CAD L778A (from UniProt Q16665 776-826) (domain or fragment)”, in assay [1], the Kd stood at 3.65 nM and the kon is 8.06e+06 M⁻¹ s⁻¹. The koff in assay [2] was 0.0294 s⁻¹.

Take “Hif-1α CAD L782A (from UniProt Q16665 776-826) (domain or fragment)”: in assay [1], the Kd worked out at 4.56 nM and the kon came to 7.36e+06 M⁻¹ s⁻¹. For the same substance, the koff in assay [2] was found to be 0.0336 s⁻¹.

For the substance “Hif-1α CAD L783A (from UniProt Q16665 776-826) (domain or fragment)”, in assay [1], the Kd turned out to be 3.6 nM and the on-rate constant (kon) was 9.62e+06 M⁻¹ s⁻¹. In addition, the koff in assay [2] was 0.0346 s⁻¹.

As for “Hif-1α CAD L792A (from UniProt Q16665 776-826) (domain or fragment)”, in assay [1], the Kd was found to be 160 nM and the kon was 5.75e+06 M⁻¹ s⁻¹. Besides, the koff in assay [2] came to 0.92 s⁻¹.

For “Hif-1α CAD L795A (from UniProt Q16665 776-826) (domain or fragment)”, in assay [1], the Kd is 1100 nM and the kon is 6.12e+06 M⁻¹ s⁻¹. Also, in assay [2], the koff is 6.74 s⁻¹.

Regarding “Hif-1α CAD L812A (from UniProt Q16665 776-826) (domain or fragment)”, in assay [1], the Kd is 71.5 nM and the on-rate constant (kon) was 7.12e+06 M⁻¹ s⁻¹. The dissociation rate constant (koff) in assay [2] was 0.509 s⁻¹.

Regarding “Hif-1α CAD L813A (from UniProt Q16665 776-826) (domain or fragment)”, the Kd in assay [1] was 137 nM; in assay [3], 144 nM. Moreover, the on-rate (kon) in assay [1] came to 8.52e+06 M⁻¹ s⁻¹. In addition, the off-rate constant (koff) in assay [2] was found to be 1.17 s⁻¹.

On to “Hif-1α CAD L818A (from UniProt Q16665 776-826) (domain or fragment)”, for which, in assay [1], the Kd was 205 nM and the kon came out at 6.23e+06 M⁻¹ s⁻¹. Besides, the koff in assay [2] amounted to 1.27 s⁻¹.

For “Hif-1α CAD L819A (from UniProt Q16665 776-826) (domain or fragment)”, in assay [1], the Kd came to 23.1 nM and the kon came out at 6.1e+06 M⁻¹ s⁻¹. The off-rate constant (koff) in assay [2] came out at 0.141 s⁻¹.

For “Hif-1α CAD M787A (from UniProt Q16665 776-826) (domain or fragment)”, in assay [1], the Kd was 4.83 nM and the association rate constant (kon) was 6.7e+06 M⁻¹ s⁻¹. Also, in assay [2], the off-rate (koff) was 0.0324 s⁻¹.

For the substance “Hif-1α CAD T796S (from UniProt Q16665 776-826) (domain or fragment)”, in assay [1], the Kd came to 3.23 nM and the kon stood at 8.27e+06 M⁻¹ s⁻¹. The koff in assay [2] was 0.0267 s⁻¹.

As for “Hif-1α CAD V802A (from UniProt Q16665 776-826) (domain or fragment)”, in assay [1], the Kd is 13.7 nM and the kon worked out at 7.28e+06 M⁻¹ s⁻¹. The koff in assay [2] worked out at 0.0995 s⁻¹.

In the case of “Hif-1α CAD V825A (from UniProt Q16665 776-826) (domain or fragment)”, in assay [1], the Kd stood at 2.12 nM and the on-rate (kon) was determined as 1.04e+07 M⁻¹ s⁻¹. Also, the off-rate (koff) in assay [2] came to 0.022 s⁻¹.

On to “Hif-1α CAD hydroxylated at Asn-803 (from UniProt Q16665 776-826) (domain or fragment)”, for which, in assay [1], the Kd was found to be 172 nM and the on-rate (kon) stood at 7.7e+06 M⁻¹ s⁻¹. For the same substance, the koff in assay [2] turned out to be 1.32 s⁻¹.

The kon is the rate constant with which the complex forms. What is called koff is the rate constant with which the complex falls apart.

For the origin of these results see publication PMC5959852.
